Test results from paper PMC11941939, “Tackling Prostate Cancer with Theranostic E5B9-Bombesin Target Modules (TMs): From Imaging to Treatment with UniCAR T-Cells” (International Journal of Molecular Sciences, 2025).

Key:
[1] = Dynamic PET imaging, tumor uptake in PC3 xenografts; type: in vivo, mouse; conditions: male, BALB/c Nude, mouse, PC3 xenograft tumor, iv, total radioactivity; PC3 tumor-bearing mice, PET, 60 min p.i., i.v., mean ± SEM, n = 4-6; read-out: SUVmean,60min tumor uptake
Protocol: (§1) For PET experiments and as prostate cancer xenograft models, male PC3 and LNCaP tumor-bearing BALB/c Nude mice were used (body weight: 22−24 g, Charles River Laboratories, Saint-Constant, QC, Canada). To generate the tumor xenografts, about 5−6 × 10^6 PC3 cells in 100 μL of PBS or 20−25 × 10^6 LNCaP cells in 200 μL of PBS/Matrigel (50/50) were subcutaneously injected into the left shoulder of male BALB/c Nude mice. For the androgen-dependent LNCaP model, a 1.5 mg pellet containing dehydroepiandrosterone DHEA (60-day release; Innovative Research of America, Sarasota, FL, U.S.A.) was implanted subcutaneously into the upper right flank shortly before LNCaP cell injection. PC3 tumors and LNCaP tumors reached sizes of ∼300−500 mm^3 after 3−5 weeks and 6−8 weeks, respectively, and were used for the in vivo experiments. PET imaging of E5B9-^68Ga-NOTA-BBN2 monomeric and dimeric TMs was performed on an INVEON® PET/CT scanner (Siemens Preclinical Solutions, Knoxville, TN, USA). Prior to radiotracer injection, mice were anesthetized through inhalation of isoflurane in 40% oxygen/60% nitrogen (gas flow 1 L/min), and body temperature was kept constant at 37 °C. The mice were placed in a prone position in the center of the field of view. A transmission scan for attenuation correction was not acquired. Mice were injected with 4−8 MBq of E5B9-^68Ga-NOTA-BBN2 or E5B9-^68Ga-NOTA-(BBN2)2 in 150 μL 10% EtOH/saline solution through a tail vein catheter. For blocking studies, PC3- and LNCaP-tumor-bearing […] mice were pre-dosed i.v. with 300 μg of Ava-BBN2 (15 min prior to radiotracer injection) in 50 uL saline. Data acquisition was performed over 60 min in 3D list mode. The dynamic list mode data were sorted into sinograms with 54 time frames (10 × 2, 8 × 5, 6 × 10, 6 × 20, 8 × 60, 10 × 120, 6 × 300 s). The frames were reconstructed using maximum a posteriori (MAP) as the reconstruction mode. No correction for partial volume effects was applied. The image files were processed using the ROVER v2.0.51 software (ABX GmbH, Radeberg, Germany). […] ROIs covered all visible tumor mass of the subcutaneous tumors, and the thresholds were defined by 50% of the maximum radioactivity uptake level. Mean standardized uptake values [SUVmean = (activity/mL tissue)/(injected activity/body weight), […]] were calculated for each ROI, and time−activity curves (TACs) were generated. For each experimental group (different radiotracers and mouse tumor models as well as control and blocking experiments), n = 3–6 mice were measured. […] Blocking experiments were conducted in the same mice: first, a control scan was measured and then repeated 1–2 days after in the presence of a blocking concentration of 300 μg of Ava-BBN2. All semi-quantified PET data are presented as means ± SEM. […]

[2] = Dynamic PET imaging, tumor uptake in LNCaP xenografts; type: in vivo, mouse; conditions: male, BALB/c Nude, mouse, LNCaP xenograft tumor, iv, total radioactivity; LNCaP tumor-bearing mice, PET, 60 min p.i., i.v., mean ± SEM, n = 3-4; read-out: SUVmean,60min tumor uptake
Protocol: as §1

LNCaP tumors = assay: as above; type: in vivo, mouse; conditions: LNCaP tumors, pre-dosing i.v. with 300 µg Ava-BBN2 15 min before radiotracer, n = 3, p < 0.01
Protocol: as §1

[3] = In vivo metabolic stability in venous blood plasma; set-up: species or system mouse; conditions: BALB/c mice, i.v., 60 min p.i., radio-HPLC, mean ± SEM, n = 3, listed as dimeric TM
Protocol: For metabolic stability studies in vivo, normal male BALB/c mice (body weight: 23−26 g, Charles River Laboratories, Saint-Constant, QC, Canada) were anesthetized through inhalation of isoflurane in 40% oxygen/60% nitrogen (gas flow 1 L/min) prior to i.v. radiotracer injection via the tail vein. Mice were injected with 28-50 MBq of E5B9-^68Ga-NOTA-BBN2 TM, E5B9-^68Ga-NOTA-(BBN2)2 TM, or ^68Ga-NOTA-Ava-Glu-(BBN2)2 dimer in 150 μL of 10% EtOH/saline. Venous blood samples were collected at 5, 15, 30, and 60 min post-injection via the mouse tail vein and further processed. Blood cells were separated by centrifugation (13,000 rpm × 5 min). The supernatant was removed, and the contained proteins were precipitated by the addition of 2 volume parts of methanol (2 vol of MeOH/1 vol of the sample). Another centrifugation step (13,000 rpm × 5 min) was performed to obtain plasma. The clear plasma supernatant was injected into a Shimadzu HPLC system. The samples were analyzed using a Phenomenex Luna 10u C18(2) 100A, 250 × 4.6 mm column, at a constant flow rate of 1 mL/min, and the following gradient with water/0.2% TFA as solvent A and acetonitrile as solvent B: 0−3 min 10% B, 10 min 30% B, 17 min 50% B, 23 min 70% B, and 27−30 min 90% B. For each radiotracer (monomers and dimers with and without E5B9) blood samples from n = 3 mice were analyzed. […]

CC[C@H](C)[C@@H](CCC(=O)N[C@H](C(N)=O)C(C)(C)C)NC(=O)[C@H](Cc1c[nH]cn1)NC(=O)CN(C)C(=O)[C@@H](NC(=O)[C@H](C)NC(=O)[C@H](Cc1c[nH]c2ccccc12)NC(=O)[C@H](CCC(N)=O)NC(=O)CCCCNC(=O)CC[C@H](NC(=O)[C@H](CCCCn1nnc2c1-c1ccccc1CN(C(=O)CCNC(=O)CCOCCOCCOCCOCCNC(=O)CCN1C(=O)CC(SC[C@H](NC(=O)[C@H](Cc3ccc(O)cc3)NC(=O)[C@H](CCC(=O)O)NC(=O)[C@H](CC(=O)O)NC(=O)[C@@H](NC(=O)[C@@H](NC(=O)[C@H](CCC(=O)O)NC(=O)[C@@H]3CCCN3C(=O)[C@H](CC(C)C)NC(=O)[C@@H]3CCCN3C(=O)[C@H](CCCCN)NC(=O)[C@@H](N)CO)C(C)C)[C@@H](C)O)C(=O)O)C1=O)c1ccccc1-2)NC(=O)CCCCNC(=S)Nc1ccc(C[C@H]2CN(CC(=O)O)CCN(CC(=O)O)CCN2CC(=O)O)cc1)C(=O)NCCCCC(=O)N[C@@H](CCC(N)=O)C(=O)N[C@@H](Cc1c[nH]c2ccccc12)C(=O)N[C@@H](C)C(=O)N[C@H](C(=O)N(C)CC(=O)N[C@@H](Cc1c[nH]cn1)C(=O)N[C@H](CCC(=O)N[C@H](C(N)=O)C(C)(C)C)[C@@H](C)CC)C(C)C)C(C)C (stereo partly shown) [dimeric ^68Ga-(BBN2)2 TM, metal not drawn]
SUV at 1 h [1]: 0.51 ± 0.1 SUV | SUV at 1 h [2]: 0.38 ± 0.03 SUV | in vivo blocking of tumor uptake (LNCaP tumors): 43 ± 3% | intact 68Ga-peptide remaining [3]: 93 ± 1%
